Ends that are not written are not given here.
Assays:
[1] = target: T1, His-LSD2 (Homo sapiens, UniProt Q8NB78); assay: GST-pulldown of His-LSD2 by GST-NPAC proteins; type: binding; settings: coomassie blue staining
T1 construct: typically 0.5 μg full-length His-LSD2; made in house; host or cells: Sf9 insect cells
T1 sequence (Q8NB78 1-822): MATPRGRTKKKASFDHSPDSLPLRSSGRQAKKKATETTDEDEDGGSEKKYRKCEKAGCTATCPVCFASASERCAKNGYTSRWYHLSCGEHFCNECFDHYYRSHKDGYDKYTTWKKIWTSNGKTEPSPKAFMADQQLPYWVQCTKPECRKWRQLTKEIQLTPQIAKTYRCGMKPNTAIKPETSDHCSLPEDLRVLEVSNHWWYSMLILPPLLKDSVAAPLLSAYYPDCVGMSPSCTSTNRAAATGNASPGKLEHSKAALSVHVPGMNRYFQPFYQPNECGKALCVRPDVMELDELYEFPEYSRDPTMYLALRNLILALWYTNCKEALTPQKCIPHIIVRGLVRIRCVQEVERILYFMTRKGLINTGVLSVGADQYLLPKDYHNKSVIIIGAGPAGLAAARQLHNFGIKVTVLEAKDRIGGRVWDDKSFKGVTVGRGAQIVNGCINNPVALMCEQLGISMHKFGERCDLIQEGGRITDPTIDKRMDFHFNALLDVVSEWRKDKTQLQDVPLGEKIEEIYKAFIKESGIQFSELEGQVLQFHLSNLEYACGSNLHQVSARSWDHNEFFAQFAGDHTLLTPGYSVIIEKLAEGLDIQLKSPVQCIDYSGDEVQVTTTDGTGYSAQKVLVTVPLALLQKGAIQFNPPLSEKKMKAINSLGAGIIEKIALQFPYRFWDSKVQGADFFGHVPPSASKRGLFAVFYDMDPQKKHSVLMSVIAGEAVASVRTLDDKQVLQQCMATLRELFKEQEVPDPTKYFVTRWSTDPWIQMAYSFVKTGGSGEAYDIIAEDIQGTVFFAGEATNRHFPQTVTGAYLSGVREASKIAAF
Experimental: […] GST or GST-NPAC fusion proteins were bound to glutathione agarose, and were incubated with 2 μg full-length His-LSD2 overnight in 50 mM NaPO4 pH 7.4, 150 mM NaCl, 0.5% NP-40, 5% glycerol, 10 μM ZnSO4, 1 mM MgCl2, 1 mM DTT, 0.1 mM PMSF at 4° C. After washed 4 times with same buffer at 4° C., glutathione agarose beads were boiled in 1×SDS sample loading buffer. Elute was resolved on a 15% SDS-PAGE gel and stained by coomassie blue.

[2] = target: T1, His-LSD2; assay: Nucleosome demethylation assay (NPAC cofactor activity for LSD2, immunoblot); type: biochemical; settings: threshold dosage of His-LSD2; nucleosomes purified from HeLa
Experimental: For nucleosome demethylation assays, typically 0.5 μg full-length His-LSD2, 1 μg NPAC protein or peptides, and 2 μg nucleosomes purified from HeLa were used, and demethylation efficiency was analyzed by SDS-PAGE electrophoresis and immunoblot using methylation specific anti-histone H3 antibodies as previously described (Shi et al. 2004).

[3] = target: T2, LSD2 (residues 51-822) (Homo sapiens, UniProt Q8NB78); assay: ITC binding of wild-type and mutant NPAC peptides (residues 214-225) with LSD2; settings: 15 °C; 3 mM NPAC peptide injected into 0.2 mM LSD2
T2 construct: Human LSD2 (residues 51-822) was subcloned into a pFastBacl derivative; His6 (cleaved yes); made in house; host or cells: Sf9 insect cells (baculovirus)
T2 sequence (Q8NB78 51-822): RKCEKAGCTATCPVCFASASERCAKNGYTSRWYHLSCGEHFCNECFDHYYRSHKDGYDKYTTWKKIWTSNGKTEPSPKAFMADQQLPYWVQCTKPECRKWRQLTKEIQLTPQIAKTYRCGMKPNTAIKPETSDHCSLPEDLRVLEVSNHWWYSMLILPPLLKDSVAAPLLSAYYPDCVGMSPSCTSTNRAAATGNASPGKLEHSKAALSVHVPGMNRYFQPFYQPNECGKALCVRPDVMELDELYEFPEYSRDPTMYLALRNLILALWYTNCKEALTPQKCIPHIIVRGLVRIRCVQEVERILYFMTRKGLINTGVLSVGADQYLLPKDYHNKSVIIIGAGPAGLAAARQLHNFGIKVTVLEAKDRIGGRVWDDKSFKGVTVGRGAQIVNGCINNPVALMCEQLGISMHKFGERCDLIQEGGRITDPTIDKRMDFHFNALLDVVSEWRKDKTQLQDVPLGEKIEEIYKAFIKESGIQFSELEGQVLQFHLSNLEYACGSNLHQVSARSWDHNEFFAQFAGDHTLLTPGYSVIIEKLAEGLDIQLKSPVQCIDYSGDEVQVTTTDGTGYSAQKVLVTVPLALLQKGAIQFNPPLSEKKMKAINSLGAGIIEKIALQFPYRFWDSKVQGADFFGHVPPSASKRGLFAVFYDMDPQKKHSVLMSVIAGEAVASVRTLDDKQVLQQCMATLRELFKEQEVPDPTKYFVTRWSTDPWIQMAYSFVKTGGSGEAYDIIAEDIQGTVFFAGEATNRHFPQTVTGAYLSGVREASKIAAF
Experimental: All proteins and peptides were prepared in 10 mM HEPES, pH 8.0, and 0.1 M NaCl. The data were fitted by software Origin 7.0.

What does the source list for “NP.d7: NPAC residues 152-186, containing the AT hook motif (SERGSKSPLKRAQEQSPRKRGRPPKDEKDLTIPES; also: fused to dimerising Fc or GST)”?
LSD2 binding (GST-pulldown) [1]: but not NP.d7 (residues 152-186, containing the AT hook motif, lane 4), is sufficient for LSD2 interaction; Cofactor activity: stimulation of LSD2 demethylation of nucleosomal H3K4me2 [2]: but not NP.d7 or NP.d9, significantly enhances LSD2 histone demethylase activity

`CC(C)C[C@H](NC(=O)[C@H](Cc1ccccc1)NC(=O)[C@H](Cc1c[nH]cn1)NC(=O)[C@H](Cc1c[nH]cn1)NC(=O)[C@H](C)NC(=O)[C@H](C)NC(=O)[C@@H]1CCCN1C(=O)[C@H](C)N)C(=O)N[C@@H](CC(C)C)C(=O)N[C@@H](CO)C(=O)N[C@@H](CCC(N)=O)C(=O)N[C@H](C(=O)O)[C@@H](C)O` [NPAC.214-225.M8] was tested. Which “Δ H” value [3] did it give?
Its value is -8.288 ± 0.101 kcal/mol.

And the “Δ S” value [3]?
The value was −1.3 cal/mol/deg.

B1: NP.d9: NP.d3 with deletion of amino acids 214-222 (protein)
chain: SERGSKSPLKRAQEQSPRKRGRPPKDEKDLTIPESSTVKGMMAGPMAAFKWQPTASEPVKDASQTEKPAVCYQAITKKLKICEEETGSTSIQ
modifications: left off: a dimerising Fc or GST; small tags and cut ends
With B1 as the molecule, how does the “LSD2 binding (GST-pulldown)” value [1] read?
Its value is “completely abolishes LSD2 binding”.

What about the “Cofactor activity: stimulation of LSD2 demethylation of nucleosomal H3K4me2” value (“Cofactor activity: stimulation” below) [2] of the same molecule?
Its value is “but not NP.d7 or NP.d9, significantly enhances LSD2 histone demethylase activity”.

B2: NP.d5: GST-tagged NPAC truncation, dehydrogenase domain, residues 262-553 (protein)
chain: SITPTDKKIGFLGLGLMGSGIVSNLLKMGHTVTVWNRTAEKCDLFIQEGARLGRTPAEVVSTCDITFACVSDPKAAKDLVLGPSGVLQGIRPGKCYVDMSTVDADTVTELAQVIVSRGGRFLEAPVSGNQQLSNDGMLVILAAGDRGLYEDCSSCFQAMGKTSFFLGEVGNAAKMMLIVNMVQGSFMATIAEGLTLAHVTGQSQQTLLDILNQGQLASIFLDQKCQNILQGNFKPDFYLKYIQKDLRLAIALGDAVNHPTPMAAAANEVYKRAKALDQSDNDMSAVYRAYIH
modifications: left off: a dimerising Fc or GST
For B2, which “LSD2 binding (GST-pulldown)” value [1] is on record?
The value was “Neither the PWWP domain (SEQ ID NO: 63) (NP.d1) nor the dehydrogenase domain (NP.d5) interacts with LSD2”.

What about the “Cofactor activity: stimulation” value [2] of the same molecule?
Its value is “Neither the PWWP domain (SEQ ID NO: 63) (NP.d1, residues 1-150) nor the dehydrogenase domain (NP.d5, residues 262-553) stimulated LSD2”.

B3: NP.d6: NPAC with deletion of the linker region (residues 152-252) (protein)
chain: MAAVSLRLGDLVWGKLGRYPPWPGKIVNPPKDLKKPRGKKCFFVKFFGTEDHAWIKVEQLKPYHAHKEEMIKINKGKRFQQAVDAVEEFLRRAKGKDQTSSHNSSDDKNRRNSSEERSRPNSGDEKRKLSLSEGKVKKNMGEGKKRVSSGSAADSTAVNGSITPTDKKIGFLGLGLMGSGIVSNLLKMGHTVTVWNRTAEKCDLFIQEGARLGRTPAEVVSTCDITFACVSDPKAAKDLVLGPSGVLQGIRPGKCYVDMSTVDADTVTELAQVIVSRGGRFLEAPVSGNQQLSNDGMLVILAAGDRGLYEDCSSCFQAMGKTSFFLGEVGNAAKMMLIVNMVQGSFMATIAEGLTLAHVTGQSQQTLLDILNQGQLASIFLDQKCQNILQGNFKPDFYLKYIQKDLRLAIALGDAVNHPTPMAAAANEVYKRAKALDQSDNDMSAVYRAYIH
modifications: left off: a dimerising Fc or GST; small tags and cut ends
B3 was tested. Which “LSD2 binding (GST-pulldown)” value [1] did it give?
Its value is “abolishes NPAC-LSD2 interaction”.

And the “Cofactor activity: stimulation” value [2]?
The value was “abolishes cofactor activity”.

B4: NP.d3: GST-tagged NPAC truncation, residues 152-252 (protein)
chain: SERGSKSPLKRAQEQSPRKRGRPPKDEKDLTIPESSTVKGMMAGPMAAFKWQPTASEPVKDADPHFHHFLLSQTEKPAVCYQAITKKLKICEEETGSTSIQ
modifications: left off: a dimerising Fc or GST
Which “LSD2 binding (GST-pulldown)” value [1] does the source give for B4 here?
Its value is “capable of directly interacting with LSD2”.

What about the “Cofactor activity: stimulation” value [2] of the same molecule?
The value was “significantly enhance LSD2 demethylase activity”.

B5: NP.d2: GST-tagged NPAC truncation, residues 1-252 (protein)
chain: MAAVSLRLGDLVWGKLGRYPPWPGKIVNPPKDLKKPRGKKCFFVKFFGTEDHAWIKVEQLKPYHAHKEEMIKINKGKRFQQAVDAVEEFLRRAKGKDQTSSHNSSDDKNRRNSSEERSRPNSGDEKRKLSLSEGKVKKNMGEGKKRVSSGSSERGSKSPLKRAQEQSPRKRGRPPKDEKDLTIPESSTVKGMMAGPMAAFKWQPTASEPVKDADPHFHHFLLSQTEKPAVCYQAITKKLKICEEETGSTSIQ
modifications: left off: a dimerising Fc or GST
How did the “LSD2 binding (GST-pulldown)” value [1] turn out when B5 was run?
Its value is “capable of directly interacting with LSD2”.

What about the “Cofactor activity: stimulation” value [2] of the same molecule?
Its value is “significantly enhance LSD2 demethylase activity”.

B6: NP.d4: GST-tagged NPAC truncation, residues 152-553 (protein)
chain: SERGSKSPLKRAQEQSPRKRGRPPKDEKDLTIPESSTVKGMMAGPMAAFKWQPTASEPVKDADPHFHHFLLSQTEKPAVCYQAITKKLKICEEETGSTSIQAADSTAVNGSITPTDKKIGFLGLGLMGSGIVSNLLKMGHTVTVWNRTAEKCDLFIQEGARLGRTPAEVVSTCDITFACVSDPKAAKDLVLGPSGVLQGIRPGKCYVDMSTVDADTVTELAQVIVSRGGRFLEAPVSGNQQLSNDGMLVILAAGDRGLYEDCSSCFQAMGKTSFFLGEVGNAAKMMLIVNMVQGSFMATIAEGLTLAHVTGQSQQTLLDILNQGQLASIFLDQKCQNILQGNFKPDFYLKYIQKDLRLAIALGDAVNHPTPMAAAANEVYKRAKALDQSDNDMSAVYRAYIH
modifications: left off: a dimerising Fc or GST
B6 was tested. Which “LSD2 binding (GST-pulldown)” value [1] did it give?
The value was “capable of directly interacting with LSD2”.

What about the “Cofactor activity: stimulation” value [2] of the same molecule?
The value was “significantly enhance LSD2 demethylase activity”.

B7: NP.d1: GST-tagged NPAC truncation, PWWP domain, residues 1-150 (protein)
chain: MAAVSLRLGDLVWGKLGRYPPWPGKIVNPPKDLKKPRGKKCFFVKFFGTEDHAWIKVEQLKPYHAHKEEMIKINKGKRFQQAVDAVEEFLRRAKGKDQTSSHNSSDDKNRRNSSEERSRPNSGDEKRKLSLSEGKVKKNMGEGKKRVSSG
modifications: left off: a dimerising Fc or GST
With B7 as the molecule, how does the “LSD2 binding (GST-pulldown)” value [1] read?
The value was “Neither the PWWP domain (SEQ ID NO: 63) (NP.d1) nor the dehydrogenase domain (NP.d5) interacts with LSD2”.

What about the “Cofactor activity: stimulation” value [2] of the same molecule?
Its value is “Neither the PWWP domain (SEQ ID NO: 63) (NP.d1, residues 1-150) nor the dehydrogenase domain (NP.d5, residues 262-553) stimulated LSD2”.
